Results taken from patent US20200030425 (published 2020).
Several values for one entry are separate records, joined by “and”; a condition that tells them apart may be missing. Equal entries are not always repeated.

Target: T1, human ICOS-Fc (human)
T1 chain: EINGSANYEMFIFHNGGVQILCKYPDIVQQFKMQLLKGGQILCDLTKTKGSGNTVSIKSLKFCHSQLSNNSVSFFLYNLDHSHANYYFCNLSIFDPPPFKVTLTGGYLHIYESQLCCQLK
Assay: SPR 37C

B1: ICOS.33 IgG1f S267E Fab (antibody, V domains shown)
VH: EVQLVESGGGLVKPGGSLRLSCAASGFTFSDYFMHWVRQAPGKGLEWVGVIDTKSFNYATYYSDLVKGRFTISRDDSKNTLYLQMNSLKTEDTAVYYCTATIAVPYYFDYWGQGTLVTVSS
VL: DIQMTQSPSSLSASVGDRVTITCQASQDISNYLSWYQQKPGKAPKLLIYYTNLLAEGVPSRFSGSGSGTDFTFTISSLQPEDIATYYCQQYYNYRTFGPGTKVDIK
Kd: 52 nM and 65 nM
